Test results from patent publication US12383572B2, “Administration of an anti-activin-a compound to a subject” (AMGEN INC., priority 2013, dated 2025).

Tests used:
[1] = tested on: endoglin, osteopontin, IGFBP-1, and IGFPB-2; assay: Western blot of endoglin, osteopontin, IGFBP-1, IGFBP-2 in inh-KO ovarian tumors; format: in vivo, mouse; conditions: inh-KO mice
Experimental: Protein extracts were prepared from cell cultures or tissues in T-PER tissue protein extraction reagent (Pierce) containing a mixture of protease inhibitors (Roche). A pool of 50 μg total protein for each group containing equal amounts of protein extract isolated from individual animals was separated by NuPAGE 4-12% Bis-Tris gel (Invitrogen) and transferred to PVDF. The membranes were probed with primary antibodies against total Smad2, p-Smad2 or E-cadherin (1:1000; Cell Signaling), endoglin, osteopontin (1:500; R & D Systems), IGFBP-1, IGFBP-2 (1:500; Abcam) followed by HRP-conjugated secondary antibody (1:2000; Cell Signaling). The membranes were stripped and re-probed with antibody against α-tubulin (1:1000; Cell Signaling).

activin-A (βA) mRNA = assay: Northern blot of activin-A (βA) mRNA in inh-KO tumors; format: in vivo, mouse; conditions: inh-KO mice, increase vs WT controls
Experimental: Total RNA was isolated from individual tissue samples after homogenization in Trizol (Invitrogen). A pool of 10 μg RNA for each group containing equal amounts of total RNA isolated from individual animals was subjected to Northern blot analysis. The northern probes used for βA and Ang-2 were generated by using RT-PCR (Phusion, Biolabs). βA primer set: 5′-CCCTTGCTTTGGCTGAGAGGA-3′ (SEQ ID NO: 294) and 5′-TC ACA GGT CGT CGT AGG TCG-3′ (SEQ ID NO: 295); Ang-2 primer set: 5′-TGT GCC GGG GAG AAG AG (SEQ ID NO: 296) and 5′-TACAGTAGTGGGTTGAGGTTC-3′ (SEQ ID NO: 297). To normalize the expression, northern blot membranes were re-probed with β-actin.

[2] = sActRIIB and doxorubicin in TOV-21G tumor-bearing nude mice: body weight and muscle mass; format: in vivo, mouse
Experimental: The objective of the present study was to examine the effect of pharmacological administration of sActRIIB, doxorubicin (dox), and sActRIIB plus doxorubicin, respectively, on body weight, tumor growth and muscle mass in nude mice implanted with TOV-21G ovarian xenograft tumors. Eight-week-old female Athymic nude mice were SC injected with 0.2 mL of 5×10^6 TOV-21G cells into the left site of the lower flank of the mice. After 10 days of tumor implantation, the mice were divided into 4 groups by body weight and tumor size and then treated with vehicle, sActRIIB, doxorubicin or the combination of sActRIIB and doxorubicin. In addition, a group of non-tumor bearing mice was used as normal control and received PBS.
Mice were weighed weekly. Body weight data were recorded longitudinally. Tumor size was measured longitudinally by using an electronic caliper. The following formula was used to calculate actual tumor volume (Tomayko M and Reynolds C, 1989): (Volume of a rectangular solid tumor: Tumor volume (mm^3)=length (mm)×width (mm)×height (mm) of tumor). At the end of the study, mice in all groups were subjected to terminal necropsy and lean carcass weight (excluding skin, adipose tissue, internal organs, and head) was determined by using standard anatomical dissection procedures. […] All results were expressed as the mean±SEM (standard error of the mean). […]

[3] = tested on: TOV-21G, MRC-5, CCD-Lu and THP-1 cell cultures; assay: VEGF and Ang-1 ELISA of cell culture medium after recombinant activin-A; format: cell-based, human; conditions: sActRIIB added with activin-A
Experimental: The serum VEGF levels in inh-KO mice were measured by using immunoassay kit (R & D Systems), and the levels of human VEGF and Ang-1 in cell line culture medium were quantified using ELISA kits purchased from Invitrogen (VEGF) and R & D Systems (Ang-1), by following the manufacturers' recommended protocols.

[4] = sActRIIB single dose in female Inhα KO mice: survival; format: in vivo, mouse
Experimental: Eleven-to-fourteen-week-old female Inhα KO mice with body weight from 19.41 to 26.82 grams were subcutaneously (SC) injected with either 30 mg/kg sActRIIB or PBS. Age-matched WT littermate control mice were injected with PBS and served as baseline controls. The study ended by necropsy 2 weeks after injections. Two cohorts of mice were used in the study. Eleven-to-thirteen-week-old female Inhα KO mice with body weight from 17.7 to 27.4 grams were SC injected with either 30 mg/kg sAcLRIIB or PBS. Age-matched WT littermate control mice were injected with PBS and served as baseline controls. The withdrawal lasted for 8 weeks. At the end of the withdrawal, the sActRIIB treated mice were divided by balanced body weight into 2 groups (Group 3 and Group 4).
Group 2 and Group 3 were euthanized to examine the ovarian tumors. Group 4 received another dose of 30 mg/kg sActRIIB and the mice were euthanized together with the WT mice 4 weeks later (total 12 weeks). Mouse body weights were recorded once per week up to 12 weeks. For necropsy, mice were euthanized in a CO2 chamber. Normal ovaries in WT mice and ovarian tumors in Inhα KO mice were collected and weighed. All results were expressed as the mean±standard error of the mean (SEM). Statistical significance of difference between groups was analyzed using Student's 2-tailed t-test on MS Excel 5.0 software. […]

TOV-21G cancer cells = assay: In vitro proliferation assay (IncuCyte live cell imaging); format: cell-based, human; conditions: increasing concentrations
Experimental: In vitro growth rates of TOV-21G cancer cells were analyzed by using a real-time live cell imaging system (IncuCyte) following the manufacturer's recommended protocol.

B1: sActRIIB: extracellular domain of human activin type-2B receptor fused to IgG2 Fc; full length SEQ ID NO: 21 (Table 9) (protein, listed as Homo sapiens)
chain: ETRWCIYYNANWELERTNQSGLERCEGEQDKRLHCYASWRNSSGTIELVKKGCWLDDFNCYDRQECVATEENPQVYFCCCEGNFCNERFTHLPEAGGPEVTYEPPPTAPTGGGGSVECPPCPAPPVAGPSVFLFPPKPKDTLMISRTPEVTCVVVDVSHEDPEVQFNWYVDGVEVHNAKTKPREEQFNSTFRVVSVLTVVHQDWLNGKEYKCKVSNKGLPAPIEKTISKTKGQPREPQVYTLPPSREEMTKNQVSLTCLVKGFYPSDIAVEWESNGQPENNYKTTPPMLDSDGSFFLYSKLTVDKSRWQQGNVFSCSVMHEALHNHYTQKSLSLSPGK
induction of endoglin, osteopontin, IGFBP-1 and IGFBP-2 proteins [1]: abolished completely
levels of βA transcripts in the tumors (activin-A (βA) mRNA): completely blocked
body weight ([2]; TOV-21G tumor-bearing nude mice, sActRIIB 10 mg/kg SC 1x/week, DOX 2 mg/kg IP 1x/week): effectively prevented the weight loss
lean carcass weight and calf muscle mass ([2]; TOV-21G-implanted nude mice, necropsy at end of 4-week experiment): prevented the loss in lean carcass weight and calf muscle mass
activin-A-induced release of angiogenic factors (ELISA) [3]: blocked completely this activin-A-induced release of angiogenic factors
survival rate at week 8 ([4]; single dose 30 mg/kg SC): 94%
survival curves, sActRIIB vs. PBS ([4]; single dose, chi-square test): significantly different
TOV-21G cell proliferation in vitro (TOV-21G cancer cells): no direct effect on TOV-21G cell proliferation in vitro
